Laboratory results published in PMC5031973.

Molecular target: recombinant human β-actin (wild type) (human) (UniProt P60709)
Assay: ITC; VP-ITC, 25 °C, G-buffer (5 mM Tris-HCl pH 7.8, 0.1 mM CaCl2, 0.2 mM DTT, 0.2 mM ATP, 0.01% NaN3); 29 injections of 10 μl Tβ4 (100 μM) into actin (10 μM) in the cell

“thymosin β4 (from UniProt P62328 1-44) (peptide)” showed a Kd of 500 nM.
